Test in all cases: ProteOn SPR binding of 39S to captured chimeric Her2 variants
For orientation: Surface plasmon resonance follows binding to a sensor surface in real time, without labels.

The target in assay [1] is T1, chimeric human/mouse Her2 variants (Homo sapiens, UniProt P04626, P283L/V272I).
T1 construct: His tag; made in house; host or cells: HEK293F (transient, pEBNA vector; captured from culture supernatant)
Particulars: variant KO_250-261. From the text: (§1) The domain II of human HER2 was identified as the epitope of 39S by swapping domains between human and mouse Her2 molecules. Mouse Her2 was chosen as the chimeric partner because it is not recognized by 39S, but shares 85% sequence identity with human HER2. Chimeric variants targeting each domain of HER2 were constructed (see method below) as listed in Table 4, including four knock-out (KO, loss-of-function) variants replacing domain I, II, III, or IV of human HER2 with the mouse counterpart, and one knock-in (KI, gain-of-function) variant grafting the domain II of human HER2 into mouse Her2 molecule. The chimeric variant nomenclature denotes types of variants (KO/KI) and the number of domains swapped. The binding profiles of 39S to these variants were characterized using a SPR based instrument ProteOn™ by capturing variants on sensor surfaces using anti-human and mouse Her2 polyclonal antibodies (see method below). The expression of the variants was monitored by anti-His polyclonal antibody using ProteOn™. […] Therefore, the domain II (amino acid 146-310) of human HER2 was identified as the epitope-containing domain of 39S by both loss-of-function and gain-of-function variants.
(§2) We further refined the epitope of 39S and identified the region of amino acid 192-208 in domain II as the critical epitope region. […] Seven knock-out variants were generated by replacing each of the following human HER2 regions with the mouse counterparts, including amino acids 146-208, 159-162, 171-187, 192-208, 250-261, 276-285, and 295-296. In addition, one knock-in variant was constructed by grafting the region of amino acid 192-208 of human HER2 to the mouse molecule. The variant nomenclature denotes types of variants (KO/KI) and the swapped regions with amino acid numbering. All variants had detectable expression levels by anti-His polyclonal antibody (Table 4). […] The binding of 39S was not impacted when substituting any other regions of human HER2 with mouse amino acids (KO_159-162, KO_171-187, KO_250-261, KO_276-285, and KO_295-296). […] Taken together, the region of amino acid 192-208 in domain II of human HER2 was identified as the functional epitope of 39S.
(§3) The variant nomenclature denotes types of variants (KO/KI) and the swapped regions with amino acid numbering. Amino acid positions were denoted basing on the numbering scheme of mature human HER2 sequences without its signal peptide. The expression levels of all variants were monitored by an anti-His polyclonal antibody. The binding profiles of 39S to these variants were characterized using a SPR based instrument ProteOn™ by capturing variants on sensor surfaces using anti-human and mouse Her2 polyclonal antibodies.
(§4) Construction and expression of chimeric human/mouse Her2 variants were constructed as follows. Briefly, DNAs encoding chimeric human/mouse Her2 variants with a His tag were assembled and amplified by overlapping PCR using human and mouse Her2 plasmids as templates (MedImmune). The assembled DNAs were cloned into the mammalian expression vector pEBNA (MedImmune). HEK293F cells were then transiently transfected with the various constructs using 293fectin and standard protocols according to the manufacturer's instructions (Invitrogen).
(§5) The binding characteristics of 39S to chimeric human/mouse variants were studied using a ProteOn™ XPR36 instrument (BioRad). Standard amine coupling was used to immobilize an anti-human or mouse Her2 polyclonal antibody (R&D System) in 10 mM sodium acetate (pH 5.0) to the surface of a GLC biosensor chip at ˜5000 resonance units (RU) for each channel. The chimeric proteins in cell culture supernatant were injected and captured by anti-human or mouse polyclonal antibodies onto the GLC surface with a ˜200RU response. Anti-HER2 mAb 39S was diluted in phosphate-buffered saline (PBS) (pH 7.4) with 0.005% Tween-20 from 10 nM to 0.625 nM (1:2 dilution), and injected at 100 μL/min for 180 sec with a 600-second dissociation time. […]

For assay [2], the target named is T2, chimeric human/mouse Her2 variants (Mus musculus, UniProt P70424, A197S/A354V/A504E/D184L/D202G/D360A/D439N/E308D/E418D/E503D/E575V/E586V/E640D/F420L/G218R/G341R/G353E/G389N/G498A/G506V/G558A/H204R/H397Q/H452S/I215S/I220V/I273V/I357V/I623A/K394Q/K549Q/K559R/L174F/L284P/L507G/M185I/N203S/N319H/N385D/N479H/N513H/P182L/P194H/P210S/P318L/Q421P/R175H/R231P/R430Q/R471H/R557N/R641K/S223G/S387A/S453W/S497T/S514Q/S573G/S580P/S594P/S595P/S596F/T199M/T222A/T299A/V173I/V183T/V390T/V511A/W548L/Y578F/Y617F).
T2 construct: His tag; made in house; host or cells: HEK293F (transient, pEBNA vector; captured from culture supernatant)
To be noted: variant KO_I, swapped human HER2 amino acids 1-145; apparent affinity, variant captured on chip.
Description: as §1, §2, §3, §4, §5

Assay [3] concerns the target T3, chimeric human/mouse Her2 variants (Homo sapiens, UniProt P04626, A221T/A298T/D307E/F173L/G201D/G222S/H174R/H193P/H318N/I172V/I184M/L181P/L183D/L317P/M198T/P230R/P283L/R203H/R217G/S196A/S202N/S209P/S214I/T182V/V219I/V272I).
T3 construct: His tag; made in house; host or cells: HEK293F (transient, pEBNA vector; captured from culture supernatant)
To be noted: variant KO_II, swapped amino acids 146-310.
Description: as §1, §2, §3, §4, §5

For assay [4], the target named is T4, chimeric human/mouse Her2 variants (Homo sapiens, UniProt P04626, G201D/H193P/M198T/R203H/S196A/S202N/S209P).
T4 construct: His tag; made in house; host or cells: HEK293F (transient, pEBNA vector; captured from culture supernatant)
Particulars: variant KO_171-187.
Description: as §1, §2, §3, §4, §5

The target in assay [5] is T5, chimeric human/mouse Her2 variants (Homo sapiens, UniProt P04626, H318N/L317P).
T5 construct: His tag; made in house; host or cells: HEK293F (transient, pEBNA vector; captured from culture supernatant)
Particulars: variant KO_295-296.
Description: as §1, §2, §3, §4, §5

Assay [6] deals with T6, chimeric human/mouse Her2 variants (Homo sapiens, UniProt P04626, A221T/F173L/G201D/G222S/H174R/H193P/I172V/I184M/L181P/L183D/M198T/P230R/R203H/R217G/S196A/S202N/S209P/S214I/T182V/V219I).
T6 construct: His tag; made in house; host or cells: HEK293F (transient, pEBNA vector; captured from culture supernatant)
To be noted: variant KO_146-208.
Description: as §1, §2, §3, §4, §5

Assay [7] addresses T7, chimeric human/mouse Her2 variants (Homo sapiens, UniProt P04626, I184M/L181P/L183D/T182V).
T7 construct: His tag; made in house; host or cells: HEK293F (transient, pEBNA vector; captured from culture supernatant)
Particulars: variant KO_159-162.
Description: as §1, §2, §3, §4, §5

B1: 39S: lead optimized monoclonal antibody derived from the 1.39.1 antibody; VH SEQ ID NO:15, VL SEQ ID NO:16 (antibody, V domains shown)
VH: EVQLVESGGGLVKPGGSLRLSCAASGFTFSSYSMSWVRQAPGKGLEWVSSISSSSSYIYYADSVKGRFTISRDNAKNSLYLQMNSLRAEDTAVYYCARGGDAYNYYYFDYWGQGTLVTVSS
VL: DIVMTQTPLSLSVTPGQPASISCKSSQSVFFRSNNKNILAWYLQKPGQPPQLLIYWASSRESGVPDRFSGSGSGTDFTLKISRVEAEDVGVYYCQQYFGSPFTFGPGTKVDIK
Take B1: the “The binding affinity of 39S (KD)” value in assay [1] is “not impacted”; in assay [2] it was “retained binding”; in assay [3] it was “did not bind and No”; in assay [4], “not impacted”; in assay [5], “not impacted”; in assay [6], “did not bind and No”. For the same molecule, the “The binding affinity of 39S (KD)” value in assay [7] is “not impacted”. For the same molecule, the Kd in assay [2] was found to be 0.095 nM.

Source of the values: patent US10160812B2, “Bispecific HER2 antibodies” (MedImmune, LLC, priority 2014, dated 2018).
